Measurements as given in patent US20080058263A1 (published 2008).
Substitutions are numbered along the chain they refer to.

B1: 32-13 (ligand)
chain: GQNHHEVVKSIDNEWRKTQCMPIETLVDIFQEFGVATNTFFKPPCVSVYRCGGCCNDEGLECVPTEESNITMQIMRITVPLSQGPKPVTISFANHTSCRCMSKLD
B2: 51-1 (ligand)
chain: AHYNTEILKSIDNEWRKTQCMPIETLVDIFQEYPDEIEYIFKPSCVPLMRCGGCCNDEGLECVPTEESNITMQIMRIKPHQGQHIGEMSFLQHNKCECRPKKD
B3: 51-7 (ligand)
chain: B2 chain with D57S, E61Q, L91A, Q92N, N94T, K95S, E97R, R99M, P100S, K102L
B4: 51-5 (ligand)
chain: B2 chain with L91A, Q92N, N94T, K95S, E97R, R99M, P100S, K102L
B5: 51-3 (ligand)
chain: B2 chain with D57S, E61Q
B6: 32-1 (ligand)
chain: GQNHHEVVKSIDNEWRKTQCMPIETLVDIFQEFGVATNTFFKPPCVSVYRCGGCCNDEGLECVPTEESNITMQIMRIKPHQGQHIGEMSFLQHNKCECRPKKD
B7: 32-3 (ligand)
chain: B6 chain with D57S, E61Q
B8: 32-5 (ligand)
chain: B6 chain with L91A, Q92N, N94T, K95S, E97R, R99M, P100S, K102L
B9: 32-7 (ligand)
chain: B6 chain with D57S, E61Q, L91A, Q92N, N94T, K95S, E97R, R99M, P100S, K102L
B10: 83-6 (ligand)
chain: AHYNTEILKFMDVYQRSYCHPIETLVDIFQEYPDEIEYIFKPPCVSVYRCGGCCNDEGLECMNTSTSYLSKTLFEIKPHQGQHIGEMSFANHTSCRCMSKLD
B11: 51-2 (ligand)
chain: AHYNTEILKSIDNEWRKTQCMPIETLVDIFQEYPDEIEYIFKPSCVPLMRCGGCCNDEGLECMNTSTSYLSKTLFEIKPHQGQHIGEMSFLQHNKCECRPKKD
B12: 51-4 (ligand)
chain: B11 chain with D57S, E61Q
B13: 24-2 (ligand)
chain: AHYNTEILKSIDNEWRKTQCMPREVCIDVGKEFGVATNTFFKPSCVPLMRCGGCCNDEGLECMNTSTSYLSKTLFEIKPHQGQHIGEMSFLQHNKCECRPKKD
B14: 24-8 (ligand)
chain: B13 chain with D57S, E61Q, L91A, Q92N, N94T, K95S, E97R, R99M, P100S, K102L
B15: 24-4 (ligand)
chain: B13 chain with D57S, E61Q
B16: 24-11 (ligand)
chain: AHYNTEILKSIDNEWRKTQCMPREVCIDVGKEFGVATNTFFKPSCVPLMRCGGCCNSEGLQCVPTEESNITMQIMRITVPLSQGPKPVTISFLQHNKCECRPKKD
B17: 24-15 (ligand)
chain: B16 chain with L93A, Q94N, N96T, K97S, E99R, R101M, P102S, K104L
B18: 24-13 (ligand)
chain: B16 chain with S57D, Q61E, L93A, Q94N, N96T, K97S, E99R, R101M, P102S, K104L
B19: 32-6 (ligand)
chain: GQNHHEVVKSIDNEWRKTQCMPIETLVDIFQEFGVATNTFFKPPCVSVYRCGGCCNDEGLECMNTSTSYLSKTLFEIKPHQGQHIGEMSFANHTSCRCMSKLD
B20: 32-8 (ligand)
chain: B19 chain with D57S, E61Q
B21: 21-13 (ligand)
chain: AHYNTEILKSIDNEWRKTQCMPREVCIDVGKEYPDEIEYIFKPSCVPLMRCGGCCNDEGLECVPTEESNITMQIMRITVPLSQGPKPVTISFANHTSCRCMSKLD
B22: 64-12 (ligand)
chain: GQNHHEVVKFMDVYQRSYCHPREVCIDVGKEFGVATNTFFKPSCVPLMRCGGCCNSEGLQCMNTSTSYLSKTLFEITVPLSQGPKPVTISFLQHNKCECRPKKD
B23: 24-12 (ligand)
chain: AHYNTEILKSIDNEWRKTQCMPREVCIDVGKEFGVATNTFFKPSCVPLMRCGGCCNSEGLQCMNTSTSYLSKTLFEITVPLSQGPKPVTISFLQHNKCECRPKKD
B24: 21-12 (ligand)
chain: B23 chain with F33Y, G34P, V35D, A36E, T37I, N38E, T39Y, F40I

Target: T1, VEGFR-1-Fc (UniProt P17948 27-338)
T1 construct: domain: first three Ig domains; expressed in Drosophila S2 cells, purified on Protein A sepharose; also called VEGFR-1-Fc fusion protein; not shown: Fc fragment from the Signal-pIgPlus vector
T1 sequence (P17948 27-338): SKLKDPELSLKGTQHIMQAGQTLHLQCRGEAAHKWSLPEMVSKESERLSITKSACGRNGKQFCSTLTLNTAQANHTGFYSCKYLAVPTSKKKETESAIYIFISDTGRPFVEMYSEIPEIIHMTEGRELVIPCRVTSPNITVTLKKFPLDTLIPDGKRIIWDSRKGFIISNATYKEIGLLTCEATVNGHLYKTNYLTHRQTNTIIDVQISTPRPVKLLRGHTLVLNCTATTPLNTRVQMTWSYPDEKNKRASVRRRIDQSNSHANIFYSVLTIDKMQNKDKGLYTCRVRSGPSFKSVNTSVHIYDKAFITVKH
Assay: receptor-Fc IP
Method in brief: (§1)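 fusion protein at 400 ng/ml in an IP mix (PBS, 1.5% BSA, 0.06% Tween 20, 3 μg/ml heparin) was combined with sample supernatant at a 1:2 ratio. Bound ligand captured by immunoprecipitation with pentahistidine antibody.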

Binding result, no binding:
B1
B2
B3
B4
B5
B6
B7
B8
B9
B10
B11
B12
B13
B14
B15
B16
B17
B18
B19
B20
B21
B22
B23
B24

Target: T2, VEGFR-3-Fc (UniProt P35916 25-328)
T2 construct: domain: first three Ig domains; conditioned supernatant of 293T cells; also called VEGFR-3-Fc fusion protein; not shown: Fc fragment of the pIg vector
T2 sequence (looked up): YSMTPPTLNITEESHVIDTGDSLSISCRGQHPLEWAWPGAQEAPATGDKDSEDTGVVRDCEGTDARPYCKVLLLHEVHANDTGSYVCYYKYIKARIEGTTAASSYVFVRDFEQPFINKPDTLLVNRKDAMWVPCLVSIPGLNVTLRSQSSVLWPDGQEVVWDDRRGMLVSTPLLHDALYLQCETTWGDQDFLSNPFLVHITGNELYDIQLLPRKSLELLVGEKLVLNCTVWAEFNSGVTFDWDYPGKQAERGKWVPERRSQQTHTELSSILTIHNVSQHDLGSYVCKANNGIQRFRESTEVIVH
Assay: receptor-Fc IP
Method in brief: as §1

Binding result, no binding:
B1
B2
B3
B4
B5
B6
B7
B8
B9
B10
B11
B12
B13
B14
B15
B16
B17
B18
B19
B20
B21
B22
B23
B24

Target: T3, VEGFR-2-Fc (UniProt P35968 20-322)
T3 construct: domain: first 3 Ig domains; conditioned supernatant of 293T cells; also called VEGFR-2-Fc fusion protein; not shown: Fc fragment of the pIg vector
T3 sequence (P35968 20-322): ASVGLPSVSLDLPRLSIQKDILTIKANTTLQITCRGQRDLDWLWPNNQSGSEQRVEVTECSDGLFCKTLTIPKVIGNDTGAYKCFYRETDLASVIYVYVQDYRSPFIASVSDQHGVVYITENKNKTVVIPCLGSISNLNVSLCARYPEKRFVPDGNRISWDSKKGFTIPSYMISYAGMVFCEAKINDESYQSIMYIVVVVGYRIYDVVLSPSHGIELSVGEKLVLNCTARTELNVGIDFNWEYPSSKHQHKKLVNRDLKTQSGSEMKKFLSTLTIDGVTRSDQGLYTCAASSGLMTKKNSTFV
Assay: receptor-Fc IP
Method in brief: as §1

Binding result, no binding:
B1
B2
B3
B4
B5
B6
B7
B8
B9
B10
B11
B12
B13
B14
B15
B16
B17
B18
B19
B20
B21
B22
B23
B24
